Test results: the supplement of paper PMC10567573

B1: PBXIP1 (parent)
chain: LQQLRARLQGLEADCVRGPDGVCL

Variants of: B1
Assay: protein stability index of a GFP-peptide fusion (GPS, HEK-293T) (PSI 1-6); higher = more stable
Details: c terminus: a fixed tail appended
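Note: lentivirally expressed fusions sorted by FACS into six bins by GFP to DsRed ratio, PSI derived from sequencing read proportions per bin multiplied by bin number.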

Protein stability index: each site, then its substitutions
L8: P 3.56, M 2.05, N 3.94, W 2.24, T 3.43, Q 3.36, V 1.99
L11: N 3.09, G 4.24, K 3.69, M 2.75, P 2.07, Q 3.97, R 2.88, D 4.28, H 2.41, I 1.93, W 2.78, Y 2.75, F 2.25, T 3.01, E 3.75, A 2.46, S 3.09
R17: C 2.04, G 2.55, E 1.86, L 1.98, M 1.79, Y 2.47, I 1.82, N 3.03, H 2.93, K 1.86, P 3.52, Q 3.04, V 2.2, W 1.81, F 2.12, T 3.19
Q9: T 1.04, A 1.43, P 2.8, D 2.86, W 1.86, K 1.87, E 1.6, H 2.42, C 3.05, G 2.28, S 1.37, R 1.17
C15: I 1.87, G 1.96, Y 2.13, D 2.65, T 2.18, A 2.6, N 1.95, S 2.16, H 1.81, K 2.29, W 2, Q 1.99, L 2.5
A13: Y 2.01, L 1.45, E 2.97, S 2.29, K 2.52, N 2.56, Q 3.12, G 1.87, I 1.34, V 2.35, M 2.79, C 2.08, H 1.68, W 1.01
E12: T 2.02, P 1.8, Q 2.26, H 1.35, D 2.23, Y 2.73, V 2.79
G18: A 2.97, W 2.54, I 1.87, K 2.27, Q 2.9, M 2.32, Y 1.93, H 2.39, V 3.65, C 2.23, D 3.74, P 1.78, F 1.47
P19: H 2.62, D 2.23, S 1, V 2.65, R 1.41, N 1, K 1.98, Y 2.13, W 1.5, I 2.58, F 1.92, T 2.12
G10: M 2.02, D 2.35, E 2.64, Q 2.53, I 1.65, W 2.15, A 1.24
D20: W 1.84, Y 1.26, G 2.45, M 1.53, R 2.54, H 1.6, V 1.8, I 1.9, E 1.89, P 1.5, Q 3.03, K 2.08, A 2.03, T 2.12
D14: R 2.93, I 2.73, E 2.24, W 1.32, M 3.39, P 2.1, G 1.15, Q 2.21, Y 1.14, N 1.75
G21: R 2.56, Q 3.34, T 1.99, K 3.18, N 2.69, W 2.07, I 1.75, S 3.94, A 1.28, Y 1.28
V16: L 1.59, M 1.81, C 1.78, Q 2.95, I 2.38, F 2.28, H 1.74, T 2.51, W 1.46, S 1.84, D 2.87, E 3.21, N 2.62, P 1.64, Y 2.57
